Data set [1] has as its target T1, GFP-PACT, O75569.
T1 chain: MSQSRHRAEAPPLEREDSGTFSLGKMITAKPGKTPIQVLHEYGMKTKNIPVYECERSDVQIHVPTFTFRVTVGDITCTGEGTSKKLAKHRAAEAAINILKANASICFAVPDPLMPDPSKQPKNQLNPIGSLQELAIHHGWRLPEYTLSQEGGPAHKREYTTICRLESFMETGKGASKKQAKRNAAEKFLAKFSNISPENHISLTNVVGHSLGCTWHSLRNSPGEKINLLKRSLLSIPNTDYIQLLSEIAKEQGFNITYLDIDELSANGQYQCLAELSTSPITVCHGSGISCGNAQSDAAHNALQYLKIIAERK

The target in data set [2] is T2, endogenous PACT, O75569.
T2 chain: T1 chain

B1: endogenous PKR (protein)
chain: AGDLSAGFFMEELNTYRQKQGVVLKYQELPNSGPPHDRRFTFQVIIDGREFPEGEGRSKKEAKNAAAKLAVEILNKEKKAVSPLLLTTTNSSEGLSMGNYIGLINRIAQKKRLTVNYEQCASGVHGPEGFHYKCKMGQKEYSIGTGSTKQEAKQLAAKLAYLQILSEETSVKSDYLSSGSFATTCESQSNSLVTSTLASESSSEGDFSADTSEINSNSDSLNSSSLLMNGLRNNQRKAKRSLAPRFDLPDMKETKYTVDKRFGMDFKEIELIGSGGFGQVFKAKHRIDGKTYVIKRVKYNNEKAEREVKALAKLDHVNIVHYNGCWDGFDYDPETSDDSLESSDYDPENSKNSSRSKTKCLFIQMEFCDKGTLEQWIEKRRGEKLDKVLALELFEQITKGVDYIHSKKLIHRDLKPSNIFLVDTKQVKIGDFGLVTSLKNDGKRTRSKGTLRYMSPEQISSQDYGKEVDLYALGLILAELLHVCDTAFETSKFFTDLRDGIISDIFDKKEKTLLQKLLSKKPEDRPNTSEILRTLTVWKKSPEKNERHTC
Consider B1, for which the PKR phosphorylation entry in data set [1] is on record as “this was accompanied by an increase in PKR phosphorylation during lysosomal damage”.

B2: FLAG-PKR (protein)
chain: MAGDLSAGFFMEELNTYRQKQGVVLKYQELPNSGPPHDRRFTFQVIIDGREFPEGEGRSKKEAKNAAAKLAVEILNKEKKAVSPLLLTTTNSSEGLSMGNYIGLINRIAQKKRLTVNYEQCASGVHGPEGFHYKCKMGQKEYSIGTGSTKQEAKQLAAKLAYLQILSEETSVKSDYLSSGSFATTCESQSNSLVTSTLASESSSEGDFSADTSEINSNSDSLNSSSLLMNGLRNNQRKAKRSLAPRFDLPDMKETKYTVDKRFGMDFKEIELIGSGGFGQVFKAKHRIDGKTYVIKRVKYNNEKAEREVKALAKLDHVNIVHYNGCWDGFDYDPETSDDSLESSDYDPENSKNSSRSKTKCLFIQMEFCDKGTLEQWIEKRRGEKLDKVLALELFEQITKGVDYIHSKKLIHRDLKPSNIFLVDTKQVKIGDFGLVTSLKNDGKRTRSKGTLRYMSPEQISSQDYGKEVDLYALGLILAELLHVCDTAFETSKFFTDLRDGIISDIFDKKEKTLLQKLLSKKPEDRPNTSEILRTLTVWKKSPEKNERHTC
In the case of B2, in data set [2], the PKR phosphorylation entry is given as “increased PKR phosphorylation under the same conditions”.

The values are drawn from patent US20240409935.
